T1: co-expressed complex of MBP-tagged human BRMS1 (residues 51-179) and His6-tagged mouse SDS3 (residues 43-234) (human | mouse, UniProt Q9HCU9 51-179; Q8BR65 43-234)
T1 construct: BRMS1, human, residues 51-179; SDS3, mouse, residues 43-234; The two chains were co-expressed and then combined with the separately expressed ARID4A R2 domain; also called SDS3, BRMS1; source: E. coli, co-expressed, purified (Ni-NTA, SEC)
T1 sequence (looked up) 1: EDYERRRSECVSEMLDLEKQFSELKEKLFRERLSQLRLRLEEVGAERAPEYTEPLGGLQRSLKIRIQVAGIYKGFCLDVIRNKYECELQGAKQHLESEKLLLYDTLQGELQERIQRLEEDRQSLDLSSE
T1 sequence (looked up) 2: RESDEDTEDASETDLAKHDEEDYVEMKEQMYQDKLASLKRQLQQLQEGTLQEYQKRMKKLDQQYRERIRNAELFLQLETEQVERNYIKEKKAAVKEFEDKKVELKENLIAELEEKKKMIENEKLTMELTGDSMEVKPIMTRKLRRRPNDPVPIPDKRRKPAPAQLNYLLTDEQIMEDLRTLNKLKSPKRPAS

B1: Sap30 (natural protein, S. cerevisiae, UniProt P38429 1-201, looked up)
chain: MARPVNTNAETESRGRPTQGGGYASNNNGSCNNNNGSNNNNNNNNNNNNNSNNSNNNNGPTSSGRTNGKQRLTAAQQQYIKNLIETHITDNHPDLRPKSHPMDFEEYTDAFLRRYKDHFQLDVPDNLTLQGYLLGSKLGAKTYSYKRNTQGQHDKRIHKRDLANVVRRHFDEHSIKETDCIPQFIYKVKNQKKKFKMEFRG
notes: Sap30, subunit of the S. cerevisiae Rpd3L complex; endogenous subunit
B2: Rxt2 with a TAP tag at the C-terminus (natural protein, S. cerevisiae)
chain: MTIRSSMKNNAELESKSVLANESNIISTFTRRIIKEKSGNYQVLKRSLDGKLIYPEATGISSNRGNKLLQRSEVVTRRDLNNSKPMIEQTVFYNGSEHRLLQTNIVTDSRRKRIKFTPDINVEPVLVGDENDIDGSEKEDENITDEYYGEEDDDDLSKLVNVKEILTPILSLGDIINHKTISRTFSSPILKNLALQIILMIEKEQMSVVRYSQFLEVFLGDHPEPIYESNLNLPSYNHNLTLPEDRGASDEDDINNKNNINEVNSNSLSTEAGHINNGMEEFGEEDPFFALPRLEQSNALLSLLPSSSGSASISTLTAAEQQQLNEEIESARQLSQIALQRNKEFIRNLQKIRKSVIKANRIRGRILNWSREYLGISDDDITIPVALRVVKRGLISATTNKTTNFEEEIENTMEDGVVDDNEPDEEANRA
notes: Rxt2, subunit of the S. cerevisiae Rpd3L complex; expressed from the tagged strain; not shown: TAP tag, C-terminal, kept
B3: Rxt3 (natural protein, S. cerevisiae, UniProt Q07458 1-294, looked up)
chain: MSVSEQDPNRAYRETQSQIYKLQETLLNSARTKNKQEEGQESNTHSFPEQYMHYQNGRNSAYDLPNVSSQSVLAFTEKHYPNKLKNLGTLYYNRFKEGSFDEDSTSYSDRHSFPYNLYDNTLPPPFLPAIGIQNINNIATLKITYEDIQASFNNIESPRKRNNEIWGCDIYSDDSDPILVLRHCGFKIGAPSGGSFHKLRRTPVNVTNQDNVTGNLPLLEGTPFDLEVELLFLPTLQKYPSVKRFDITSREWGSEATVIHDGLSYGIYSIVIKQRLDRDKPHEPNGYIKNLKWT
notes: Rxt3, subunit of the S. cerevisiae Rpd3L complex; endogenous subunit
B4: Rpd3 (enzyme, S. cerevisiae, UniProt P32561 1-433, looked up)
chain: MVYEATPFDPITVKPSDKRRVAYFYDADVGNYAYGAGHPMKPHRIRMAHSLIMNYGLYKKMEIYRAKPATKQEMCQFHTDEYIDFLSRVTPDNLEMFKRESVKFNVGDDCPVFDGLYEYCSISGGGSMEGAARLNRGKCDVAVNYAGGLHHAKKSEASGFCYLNDIVLGIIELLRYHPRVLYIDIDVHHGDGVEEAFYTTDRVMTCSFHKYGEFFPGTGELRDIGVGAGKNYAVNVPLRDGIDDATYRSVFEPVIKKIMEWYQPSAVVLQCGGDSLSGDRLGCFNLSMEGHANCVNYVKSFGIPMMVVGGGGYTMRNVARTWCFETGLLNNVVLDKDLPYNEYYEYYGPDYKLSVRPSNMFNVNTPEYLDKVMTNIFANLENTKYAPSVQLNHTPRDAEDLGDVEEDSAEAKDTKGGSQYARDLHVEHDNEFY
notes: Rpd3, histone deacetylase, the catalytic subunit of the S. cerevisiae Rpd3L complex; endogenous subunit; Present in two copies in the Rpd3L complex, one in each lobe; also called Rpd3-I; Rpd3-II
B5: Pho23 (natural protein, S. cerevisiae, UniProt P50947 1-330, looked up)
chain: MSSPANLFPGLNDITDVLEEFPLATSRYLTLLHEIDAKCVHSMPNLNERIDKFLKKDFNKDHQTQVRLLNNINKIYEELMPSLEEKMHVSSIMLDNLDRLTSRLELAYEVAIKNTEIPRGLRLGVDNHPAMHLHHELMEKIESKSNSKSSQALKSESRREAMAANRRQGEHYSASTHQQDDSKNDANYGGSRHESQDHTGNNTNSRKRANAANTNNADPETKKRKRRVATTAVSPSTISTATAVNNGRIGTSTASRGVSSVGNSNNSRISRPKTNDYGEPLYCYCNQVAYGEMVGCDGADCELEWFHLPCIGLETLPKGKWYCDDCKKKL
notes: Pho23, subunit of the S. cerevisiae Rpd3L complex; endogenous subunit
B6: His6-tagged human ARID4A R2 domain (residues 1164-1230) (domain or fragment, UniProt P29374 1164-1230, looked up)
chain: SPRTYKWSFQLNELDNMNSTERISFLQEKLQEIRKYYMSLKSEVATIDRRRKRLKKKDREVSHAGAS
notes: ARID4A, human, R2 domain, residues 1164-1230; Construct in the pMCSG7 vector; source: E. coli, expressed separately, purified (Ni-NTA, SEC)
B7: Sds3 (natural protein, S. cerevisiae, UniProt P40505 1-327, looked up)
chain: MAIQKVSNKDLSRKDKRRFNIESKVNKIYQNFYSERDNQYKDRLTALQTDLTSLHQGDNGQYARQVRDLEEERDLELVRLRLFEEYRVSRSGIEFQEDIEKAKAEHEKLIKLCKERLYSSIEQKIKKLQEERLLMDVANVHSYAMNYSRPQYQKNTRSHTVSGWDSSSNEYGRDTANESATDTGAGNDRRTLRRRNASKDTRGNNNNQDESDFQTGNGSGSNGHGSRQGSQFPHFNNLTYKSGMNSDSDFLQGINEGTDLYAFLFGEKNPKDNANGNEKKKNRGAQRYSTKTAPPLQSLKPDEVTEDISLIRELTGQPPAPFRLRSD
notes: Sds3, subunit of the S. cerevisiae Rpd3L complex; endogenous subunit
B8: Dep1 (natural protein, S. cerevisiae, UniProt P31385 1-405, looked up)
chain: MSQQTPQESEQTTAKEQDLDQESVLSNIDFNTDLNHNLNLSEYCISSDAGTEKMDSDEEKSLANLPELKYAPKLSSLVKQETLTESLKRPHEDEKEAIDEAKKMKVPGENEDESKEEEKSQELEEAIDSKEKSTDARDEQGDEGDNEEENNEEDNENENEHTAPPALVMPSPIEMEEQRMTALKEITDIEYKFAQLRQKLYDNQLVRLQTELQMCLEGSHPELQVYYSKIAAIRDYKLHRAYQRQKYELSCINTETIATRTFIHQDFHKKVTDLRARLLNRTTQTWYDINKERRDMDIVIPDVNYHVPIKLDNKTLSCITGYASAAQLCYPGEPVAEDLACESIEYRYRANPVDKLEVIVDRMRLNNEISDLEGLRKYFHSFPGAPELNPLRDSEINDDFHQWAQ
notes: Dep1, subunit of the S. cerevisiae Rpd3L complex; endogenous subunit

Legend:
[1] = target: T2, Sin3 (S. cerevisiae, UniProt P22579 1-1536); assay: cryo-EM structure; Rpd3L complex purified by TAP, crosslinked on ice with 1 mM BS3 for 15 min, graphene oxide coated grid; map at 3.5 Å, lobes I and II focus refined to 3.4 Å; conditions: both partners purified
T2 construct: Sin3, principal scaffolding subunit of the S. cerevisiae Rpd3L complex; endogenous subunit; Present in two copies in the Rpd3L complex, one in each lobe; also called Sin3-I; Sin3-II
T2 sequence (P22579 whole entry): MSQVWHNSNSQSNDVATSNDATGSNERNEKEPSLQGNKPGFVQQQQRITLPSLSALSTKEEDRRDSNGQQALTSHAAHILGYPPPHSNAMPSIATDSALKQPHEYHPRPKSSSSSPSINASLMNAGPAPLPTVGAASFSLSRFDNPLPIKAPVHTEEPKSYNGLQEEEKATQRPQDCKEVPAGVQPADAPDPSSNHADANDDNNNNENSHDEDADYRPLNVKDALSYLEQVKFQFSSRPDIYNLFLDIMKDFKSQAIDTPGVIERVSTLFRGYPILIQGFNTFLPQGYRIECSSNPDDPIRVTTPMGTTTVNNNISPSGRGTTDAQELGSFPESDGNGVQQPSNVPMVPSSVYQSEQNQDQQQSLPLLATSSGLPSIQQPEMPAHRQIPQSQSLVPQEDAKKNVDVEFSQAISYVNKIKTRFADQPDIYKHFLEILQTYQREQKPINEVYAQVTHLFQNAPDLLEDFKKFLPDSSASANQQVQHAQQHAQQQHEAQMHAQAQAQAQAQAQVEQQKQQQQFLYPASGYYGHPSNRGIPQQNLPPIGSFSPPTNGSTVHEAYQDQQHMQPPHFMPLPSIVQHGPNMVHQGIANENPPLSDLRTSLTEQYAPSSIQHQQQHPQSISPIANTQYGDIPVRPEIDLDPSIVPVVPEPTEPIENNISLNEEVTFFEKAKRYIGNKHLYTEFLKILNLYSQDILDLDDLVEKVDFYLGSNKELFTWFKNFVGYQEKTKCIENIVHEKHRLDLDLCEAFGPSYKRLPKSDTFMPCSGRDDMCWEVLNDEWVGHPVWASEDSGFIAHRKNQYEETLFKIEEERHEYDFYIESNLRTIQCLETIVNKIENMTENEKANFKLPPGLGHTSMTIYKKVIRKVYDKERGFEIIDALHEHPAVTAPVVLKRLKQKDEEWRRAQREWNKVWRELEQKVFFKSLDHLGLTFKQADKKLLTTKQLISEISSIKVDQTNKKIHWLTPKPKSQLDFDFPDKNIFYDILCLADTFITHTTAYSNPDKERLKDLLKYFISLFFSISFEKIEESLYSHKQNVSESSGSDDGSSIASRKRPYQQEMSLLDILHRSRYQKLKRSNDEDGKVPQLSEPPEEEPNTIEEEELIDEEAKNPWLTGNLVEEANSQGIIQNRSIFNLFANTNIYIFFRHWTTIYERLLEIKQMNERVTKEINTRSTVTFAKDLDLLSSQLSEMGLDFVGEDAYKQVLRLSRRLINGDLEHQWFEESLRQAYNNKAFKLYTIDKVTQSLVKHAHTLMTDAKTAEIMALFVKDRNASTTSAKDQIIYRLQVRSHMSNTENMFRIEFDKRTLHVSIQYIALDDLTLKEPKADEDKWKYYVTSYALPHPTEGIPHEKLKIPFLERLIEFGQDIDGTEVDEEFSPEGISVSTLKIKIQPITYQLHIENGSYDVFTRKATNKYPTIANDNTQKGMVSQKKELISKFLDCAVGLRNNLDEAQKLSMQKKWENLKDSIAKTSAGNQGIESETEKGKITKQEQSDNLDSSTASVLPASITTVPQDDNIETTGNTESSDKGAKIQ

[2] = target: B7; assay: as above; conditions: both partners purified
[3] = target: B4; assay: affinity purification with mass spectrometry; tandem affinity purification from S. cerevisiae lysate by the TAP tag on Rxt2 (IgG resin, TEV protease, calmodulin resin; washes with 500 to 750 mM KCl); the purified complex analysed by mass spectrometry; conditions: partners not purified
[4] = target: T2, Sin3; assay: as above; conditions: partners not purified
[5] = target: B4; assay: cryo-EM structure; Rpd3L complex purified by TAP, crosslinked on ice with 1 mM BS3 for 15 min, graphene oxide coated grid; map at 3.5 Å, lobes I and II focus refined to 3.4 Å; conditions: both partners purified
[6] = target: B8; assay: as above; conditions: both partners purified
[7] = target: T1, co-expressed complex of MBP-tagged …; assay: SEC; Ni-NTA purified proteins on a Superdex 75 GL column in 25 mM MOPS pH 7.5, 150 mM NaCl, 1 mM TCEP; co-elution; conditions: both partners purified

B1: binds [1]; binds [2].

B2: binds [3]; binds [4].

B3: binds [1].

B4: binds [1].

B5: binds [5]; binds [6].

B6: binds [7].

B7: binds [1].

B8: binds [5]; binds [1].

From article PMC10224958, “Cryo-EM structure of the Saccharomyces cerevisiae Rpd3L histone deacetylase complex” (Nature Communications, 2023)
